What was measured:
[1] = tested on: Il2rg ZFN-1 (zinc finger-FokI nuclease) (synthetic construct); experiment: cell_activity; conditions: pair ZFN-1+ZFN-2, clones with ZFN cleavage (6/192) in mouse F1H4 ES cells without LTVEC; 6.9% among non-targeted clones with LTVEC; 6 bp spacer
[2] = tested on: Il2rg ZFN-2 (zinc finger-FokI nuclease) (synthetic construct); experiment: cell_activity; conditions: pair ZFN-1+ZFN-2, clones with ZFN cleavage (6/192) in mouse F1H4 ES cells without LTVEC; 6.9% among non-targeted clones with LTVEC; 6 bp spacer

| Sequence | activity [1] [%] | activity [2] [%] |
| --- | --- | --- |
| AGCTCCAAGGTCCTC (double strand) [Il2rg exon 1 ZFN-1 half-site (sense strand)] | 3.1 |  |
| GTCTTCATTCGCACT (double strand) [Il2rg exon 1 ZFN-2 half-site (antisense strand)] |  | 3.1 |
